Data: patent publication US20250313629A1

Target: cynomolgus Lag3 on cells (HEK293F cells transiently transfected with cyno-LAG-3; activated cynomolgus PBMC/T cells) (cynomolgus)
Test: flow cytometry on CD3/CD28-activated cynomolgus PBMC, antibody at 10 ug/ml

percentage of Lag3 positive cells: 9.19%
Substance: DP47 (human isotype) (antibody)
